Experimental data as given in patent US11584938B2, “Plant EPSPS mutant containing L195P and S247G mutations and encoding gene and use thereof” (GEVOTO LLC, priority 2017, dated 2023).

Test system: double knockout E. coli (EPSPS defective E. coli, EDCE)
Test: growth of EPSPS defective E. coli transformed by the EPSPS gene in M9 culture media containing different glyphosate concentrations
Format: cell-based, E. coli DH5α
Settings: for EPSPS enzyme activity: concluded from growth of defective E. coli at 0 mM glyphosate
From the text: A method for detecting the glyphosate resistance of the soybean EPSPS mutant G1 provided in Example 1 and the soybean EPSPS mutant G3 provided in Example 2 is as follows:
according to the sequence of the nucleic acid molecule provided in the example, synthesizing the encoding gene that encodes the soybean EPSPS mutant G1 or G3 using a chemical synthesis method, introducing enzyme sites (Pac1 and Sbf1) at two ends thereof, connecting to an expression vector (for example, a pADV5 vector, the structure of which is as shown in FIG. 15) that has undergone the same restriction enzyme digestion treatment under the action of ligase after restriction enzyme digestion, then transforming double knockout E. coli, picking positive colonies after verification, inoculating the positive colonies to M9 culture media containing different glyphosate concentrations for growth, and observing the growth situation of the E. coli.
The wild-type soybean EPSPS (with an amino acid sequence represented by SEQ ID NO: 2 and an encoding gene sequence represented by SEQ ID NO: 1) and the soybean EPSPS mutant G2 (with an amino acid sequence represented by SEQ ID NO: 6, and a corresponding encoding gene sequence represented by SEQ ID NO: 5) merely containing the mutation P114(101)S were taken as controls.
In the above, the M9 basal culture medium can be prepared by the following method:
5×M9 salt solution: 6.78 g of Na2HPO4, 3.0 g of KH2PO4, 0.5 g of NaCl, and 1.0 g of NH4Cl were weighed, added with ddH2O to 200 ml, and subjected to high-temperature and high-pressure sterilization treatment;
20% glucose: 20 g of glucose was weighed, added with 80 ml of ddH2O for dissolving, diluted to 100 ml, and subjected to filtration and sterilization treatment;
1.0 M MgSO4: 24.6 g of MgSO4-7H2O was weighed, dissolved with 80 ml of ddH2O, diluted to 100 ml, and subjected to sterilization treatment;
1.0 M CaCl2: 11.1 g of CaCl2 was weighed, dissolved with 80 ml of ddH2O, diluted to 100 ml, and subjected to sterilization treatment; and
1000 ml of the M9 basal culture media were prepared by adding ddH2O to 200 ml of 5×M9 salt solution, 20 ml of 20% glucose, 2 ml of 1.0 M MgSO4 and 0.1 ml of 1.0 M CaCl2 to make up to 1000 ml.
In the above, the E. coli used was double knockout E. coli, namely, EPSPS defective E. coli (E. coli DH5α with EPSPS gene and C-P Lyase gene being knocked out, named as EDCE, wherein for a preparation method thereof, reference can be made to a Chinese invention patent with the filing number CN2016103256926).
The glyphosate resistance of the soybean EPSPS mutant G4 provided in Example 3 and the soybean EPSPS mutant G5 provided in Example 4 was verified with reference to the detection method in Experiment Example 1.
The wild-type wheat EPSPS (with an amino acid sequence represented by SEQ ID NO: 14, and a corresponding encoding gene sequence represented by SEQ ID NO: 13) and the wheat EPSPS mutant T2 (with an amino acid sequence represented by SEQ ID NO: 18, and a corresponding encoding gene sequence represented by SEQ ID NO: 17) merely containing the mutation P118(101)S were taken as controls to verify the glyphosate resistance of the wheat EPSPS mutants T1 and T3 provided in Example 5 and Example 6, and reference can be made to Experiment Example 1 for the method.
A method for verifying the glyphosate resistance of the wheat EPSPS mutants T4, T5, and T6 provided in Examples 7-9 is the same as that in Experiment Example 3.
The wild-type rice EPSPS R0 (with an amino acid sequence represented by SEQ ID NO: 28, and a corresponding encoding gene sequence represented by SEQ ID NO: 27) and the rice EPSPS mutant R2 (with an amino acid sequence represented by SEQ ID NO: 32, and a corresponding encoding gene sequence represented by SEQ ID NO: 31) merely containing the mutation P116(101)S were taken as controls to verify the glyphosate resistance of the rice EPSPS mutants R1 and R3 provided in Examples 10 and 11, and reference can be made to Experiment Example 1 for the method. […]

[1] = culture media containing 0 mM glyphosate
[2] = culture media containing 20 mM glyphosate

Molecule	EPSPS enzyme activity	growth of the E. coli transformed by the EPSPS [1]	growth of the E. coli transformed by the EPSPS [2]	growth of the transformed E. coli compared with E. coli transformed by the control EPSPS named in the value [2]
R5: rice EPSPS mutant, SEQ ID NO: 38, mutations S267(247)G and P116(101)S (protein) MASNAAAAAAKAEEIVLQPIREISGAVQLPGSKSLSNRILLLSALSEGTTVVDNLLNSEDVHYMLEALKALGLSVEADKVAKRAVVVGCGGKFPVEKDAKEEVQLFLGNAGTAMRSLTAAVTAAGGNATYVLDGVPRMRERPIGDLVVGLKQLGADVDCFLGTECPPVRVKGIGGLPGGKVKLSGSISSQYLSALLMAAPLALGDVEIEIIDKLISIPYVEMTLRLMERFGVKAEHSDSWDRFYIKGGQKYKSPGNAYVEGDASSAGYFLAGAAITGGTVTVQGCGTTSLQGDVKFAEVLEMMGAKVTWTDTSVTVTGPPREPYGKKHLKAVDVNMNKMPDVAMTLAVVALFADGPTAIRDVASWRVKETERMVAIRTELTKLGASVEEGPDYCIITPPEKLNITAIDTYDDHRMAMAFSLAACADVPVTIRDPGCTRKTFPNYFDVLSTFVRN	normal EPSPS enzyme activity	could grow	could grow	obviously superior to that of the E. coli transformed by R2
R6: rice EPSPS mutant, SEQ ID NO: 40, mutations S267(247)G, L214(195)P and P116(101)S (protein) MASNAAAAAAKAEEIVLQPIREISGAVQLPGSKSLSNRILLLSALSEGTTVVDNLLNSEDVHYMLEALKALGLSVEADKVAKRAVVVGCGGKFPVEKDAKEEVQLFLGNAGTAMRSLTAAVTAAGGNATYVLDGVPRMRERPIGDLVVGLKQLGADVDCFLGTECPPVRVKGIGGLPGGKVKLSGSISSQYLSALLMAAPLALGDVEIEIIDKPISIPYVEMTLRLMERFGVKAEHSDSWDRFYIKGGQKYKSPGNAYVEGDASSAGYFLAGAAITGGTVTVQGCGTTSLQGDVKFAEVLEMMGAKVTWTDTSVTVTGPPREPYGKKHLKAVDVNMNKMPDVAMTLAVVALFADGPTAIRDVASWRVKETERMVAIRTELTKLGASVEEGPDYCIITPPEKLNITAIDTYDDHRMAMAFSLAACADVPVTIRDPGCTRKTFPNYFDVLSTFVRN	normal EPSPS enzyme activity	could grow	could grow	superior to that of the E. coli transformed by R2
